The results in this text go back to patent US20200377613A1.

In this assay the target is survivin peptide coating antigen, not stated which (SEQ ID NO:4 or SEQ ID NO:27). Description: indirect ELISA; coating peptide not stated. Background: In an ELISA, binding on a coated surface is turned into a signal by an enzyme label.

B1: mAb 2C2E7 (antibody, IgG2b, V domains shown)
VH: QIQLVQSGPELKKPGETVKISCKASGYTFTTYGMSWVKQAPGRGLKWMGWINPYSGVPTYAVDFKGRFAFSLETSASTAYLQINNLKNEDTATYFCARGGRRGDFGYWGQGTTLTVSS
VL: QIGLTQSPAIMSASPGEKVTMTCSASSSISYMHWYQQKPGTSPKTWIYDTSKLASGVPARFSGSGSGTSYSLTISSMEAEDAATYYCHQRSSHHTFGGGTKLEIK
On to B1, for which the titer (highest dilution with signal to blank ratio >2:1) (dilution (1:x)) was 512000.

B2: mAb 30H3D2 (antibody, IgG1, V domains shown)
VH: EVQLVESGGDLVKPGGSLKLSCAASGFTFSSYGMSWVRLTPDKRLEWVATISSGGSHTYYPDSVRGRFTISRDNAKNTLYLQMSSLKSEDTAMYYCARHPIYYYISSYAMDYWGQGTSVTVSS
VL: DVVMTQTPLSLPVSLGDQASISCRSSQSLVHSTGNTYLHWYLQKPGQSPKLLIYKVSNRFSGVPDRFGGSGSGTDFTLKISRVEAEDLGVYFCSQSTHVPPTFGGGTKLEIK
For B2, the titer (highest dilution with signal to blank ratio >2:1) (dilution (1:x)) was determined as 512000.
